Laboratory results taken from article PMC3701619, “High Levels of DegU-P Activate an Esat-6-Like Secretion System in Bacillus subtilis” (PLoS ONE, 2013).

Key:
[1] = target: the molecule itself; experiment: cross-linking; pure YukE-His6 (0.4 to 10.3 uM with 0.25 mM BS3; 20 to 84 uM with 1 mM BS3) in YukE buffer (50 mM HEPES-Na pH 7.0, 300 mM NaCl), 30 min at room temperature; 15% SDS-PAGE, Coomassie staining or Western blot with anti-YukE-His6
[2] = target: the molecule itself; experiment: cross-linking; concentrated, dialysed (25 mM HEPES pH 7, 250 mM NaCl) cell-free supernatant of a W654 culture at T2, 2.5 ug total protein, 1 mM or 5 mM BS3, 30 min at room temperature; Western blot with anti-YukE-His6

B1: YukE-His6 (natural protein, B. subtilis, UniProt C0SP85 1-97, looked up)
chain: MAGLIRVTPEELRAMAKQYGVESQEVLNQVDRLNRMISDLKSMWEGASSEAFADQYEQLKPSFIKMSDLLQDVNQQLDQTANTLESTDQDIANQIRG
notes: YukE, WXG100 protein of Bacillus subtilis; YukE-His6 is 12.17 kDa; The vector may add linker residues between YukE and the His6 tag; The vector is named pIVEX3.2d once and pIVEX2.3d once; also called recombinant YukE; YukE C-terminally tagged with a hexahistidine tail; not shown: His6, C-terminal, kept
[1]
  stoichiometry N: 2

B2: native YukE (natural protein, UniProt C0SP85 1-97, looked up)
chain: MAGLIRVTPEELRAMAKQYGVESQEVLNQVDRLNRMISDLKSMWEGASSEAFADQYEQLKPSFIKMSDLLQDVNQQLDQTANTLESTDQDIANQIRG
notes: YukE, WXG100 protein of Bacillus subtilis, as secreted to the culture medium; predicted mass of the native dimer ~22 kDa; the protein here is from an ATCC 6051 derivative; also called YukE present in a concentrated culture supernatant of strain W654
[2]
  stoichiometry N: 2
